Experimental data reported in the supplement of paper PMC10567573.

B1: ZNF511 (parent)
chain: AAPFRFVARPVRFPREHQFFEDGD
B2: LRRC45 (parent)
chain: FQTRQEMTSMSAELKMRAIQAEER

Variants of: B1
Test: protein stability index of a GFP-peptide fusion (GPS, HEK-293T) (PSI 1-6); higher = more stable
Conditions: c terminus: a fixed tail appended
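Further: lentivirally expressed fusions sorted by FACS into six bins by GFP to DsRed ratio, PSI derived from sequencing read proportions per bin multiplied by bin number.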

Row | Variant | protein stability index
1 | AAPFRFVNRPVRFPREHQFFEDGD | 2.23
2 | AAPFRFVARPVRFPREHQFFEDGR | 2.04
3 | AAPFRFVASPVRFPREHQFFEDGD | 2.2
4 | AAPFRFVARPVRFPREHQFFEDMD | 1.91
5 | AAPFRIVARPVRFPREHQFFEDGD | 3.38
6 | AAPFRFVARPVRDPREHQFFEDGD | 2.1
7 | AAPFRFVARPVRFPYEHQFFEDGD | 1.71
8 | AAPFRFMARPVRFPREHQFFEDGD | 3.7
9 | AADFRFVARPVRFPREHQFFEDGD | 1.06
10 | AAPFRFVQRPVRFPREHQFFEDGD | 1.66
11 | AAPFRFVARPVRFPREHQFWEDGD | 1.9
12 | AAPFRFVARCVRFPREHQFFEDGD | 2.36
13 | AAPFRFVARPVRFPREHTFFEDGD | 1.69
14 | AAPFRFVARPVRFPREHQFAEDGD | 2.2
15 | AAPSRFVARPVRFPREHQFFEDGD | 4.53
16 | CAPFRFVARPVRFPREHQFFEDGD | 2.39
17 | AAPFRFVARPVRFPPEHQFFEDGD | 2.85
18 | AAPFRFVARPVREPREHQFFEDGD | 2.36
19 | AAPFRFVARPVRFPREHQFDEDGD | 2.54

Row | Variant | protein stability index
20 | AAPFRFVARPVRCPREHQFFEDGD | 1.8
21 | AAPFRPVARPVRFPREHQFFEDGD | 4.83
22 | AAPFRFIARPVRFPREHQFFEDGD | 2.53
23 | AAPFRFVVRPVRFPREHQFFEDGD | 1.59
24 | AAPFRFVARPVRFPREHQFFEDGI | 1.53
25 | AAPFIFVARPVRFPREHQFFEDGD | 2.67
26 | AEPFRFVARPVRFPREHQFFEDGD | 2.8
27 | AAPFRFVARPVRFPREDQFFEDGD | 2.05
28 | AAPFCFVARPVRFPREHQFFEDGD | 3.05
29 | AWPFRFVARPVRFPREHQFFEDGD | 1.47
30 | AAPFRFVARPVRFPRLHQFFEDGD | 2.26
31 | AAPFRFVARPVSFPREHQFFEDGD | 3.73
32 | AAPFRGVARPVRFPREHQFFEDGD | 4.43
33 | AAPFRFVARPVRFPRETQFFEDGD | 2.35
34 | AAPFRFVARPVRFPREHQFFEDGC | 2.29
35 | AAPFRFVARPVRFPREHQFFKDGD | 2.19
36 | AAPFRFVARPVRFPREHQFFEDDD | 2.77
37 | AAPFRFVARPVRFPREHMFFEDGD | 2.86

Variants of: B2
Test: as above
Conditions: c terminus: a fixed tail appended

Row | Variant | protein stability index
38 | AQTRQEMTSMSAELKMRAIQAEER | 4.88
39 | CQTRQEMTSMSAELKMRAIQAEER | 4.85
40 | DQTRQEMTSMSAELKMRAIQAEER | 5.24
41 | EQTRQEMTSMSAELKMRAIQAEER | 4.91
42 | GQTRQEMTSMSAELKMRAIQAEER | 4.46
43 | HQTRQEMTSMSAELKMRAIQAEER | 4.85
44 | IQTRQEMTSMSAELKMRAIQAEER | 4.27
45 | KQTRQEMTSMSAELKMRAIQAEER | 5.1
46 | LQTRQEMTSMSAELKMRAIQAEER | 5.21
47 | MQTRQEMTSMSAELKMRAIQAEER | 4.52
48 | NQTRQEMTSMSAELKMRAIQAEER | 5.13
49 | PQTRQEMTSMSAELKMRAIQAEER | 4.5
50 | QQTRQEMTSMSAELKMRAIQAEER | 5.21
51 | RQTRQEMTSMSAELKMRAIQAEER | 4.42
52 | SQTRQEMTSMSAELKMRAIQAEER | 5.1
53 | TQTRQEMTSMSAELKMRAIQAEER | 5.21
54 | VQTRQEMTSMSAELKMRAIQAEER | 4.92
55 | WQTRQEMTSMSAELKMRAIQAEER | 4.66
56 | YQTRQEMTSMSAELKMRAIQAEER | 4.02

Row | Variant | protein stability index
57 | FATRQEMTSMSAELKMRAIQAEER | 3.67
58 | FCTRQEMTSMSAELKMRAIQAEER | 3.29
59 | FDTRQEMTSMSAELKMRAIQAEER | 4.48
60 | FETRQEMTSMSAELKMRAIQAEER | 5.13
61 | FFTRQEMTSMSAELKMRAIQAEER | 4.36
62 | FGTRQEMTSMSAELKMRAIQAEER | 4.85
63 | FHTRQEMTSMSAELKMRAIQAEER | 2.27
64 | FITRQEMTSMSAELKMRAIQAEER | 2.93
65 | FKTRQEMTSMSAELKMRAIQAEER | 3.59
66 | FLTRQEMTSMSAELKMRAIQAEER | 3.76
67 | FMTRQEMTSMSAELKMRAIQAEER | 4.3
68 | FNTRQEMTSMSAELKMRAIQAEER | 3.89
69 | FPTRQEMTSMSAELKMRAIQAEER | 4.69
70 | FRTRQEMTSMSAELKMRAIQAEER | 4.18
71 | FSTRQEMTSMSAELKMRAIQAEER | 4.85
72 | FTTRQEMTSMSAELKMRAIQAEER | 3.92
73 | FVTRQEMTSMSAELKMRAIQAEER | 2.23
74 | FWTRQEMTSMSAELKMRAIQAEER | 4.01
75 | FYTRQEMTSMSAELKMRAIQAEER | 3.78

Row | Variant | protein stability index
76 | FQARQEMTSMSAELKMRAIQAEER | 4.32
77 | FQCRQEMTSMSAELKMRAIQAEER | 3.02
78 | FQDRQEMTSMSAELKMRAIQAEER | 4.4
79 | FQERQEMTSMSAELKMRAIQAEER | 5.23
80 | FQFRQEMTSMSAELKMRAIQAEER | 3.95
81 | FQGRQEMTSMSAELKMRAIQAEER | 3.72
82 | FQHRQEMTSMSAELKMRAIQAEER | 3.42
83 | FQIRQEMTSMSAELKMRAIQAEER | 3.86
84 | FQKRQEMTSMSAELKMRAIQAEER | 4.28
85 | FQLRQEMTSMSAELKMRAIQAEER | 3.76
86 | FQMRQEMTSMSAELKMRAIQAEER | 3.52
87 | FQNRQEMTSMSAELKMRAIQAEER | 3.52
88 | FQPRQEMTSMSAELKMRAIQAEER | 4.04
89 | FQQRQEMTSMSAELKMRAIQAEER | 3.83
90 | FQRRQEMTSMSAELKMRAIQAEER | 3.55
91 | FQSRQEMTSMSAELKMRAIQAEER | 3.97
92 | FQVRQEMTSMSAELKMRAIQAEER | 3.43
93 | FQWRQEMTSMSAELKMRAIQAEER | 2.06
94 | FQYRQEMTSMSAELKMRAIQAEER | 3.22
